How the values were obtained:
[1] = target: R231K EDG-1 mutant receptor (UniProt P21453)
[2] = target: R233K EDG-1 mutant receptor (UniProt P21453)
[3] = target: Flag-tagged wild-type EDG-1 receptor (UniProt P21453)
[4] = target: T236A EDG-1 mutant receptor (UniProt P21453)
[5] = target: GST-i3T236V polypeptide (UniProt P21453)
[6] = target: GST-i3 polypeptide from EDG-3 (UniProt Q99500)
[7] = system: GST-i3 polypeptide from EDG-5 [GST: P08515]
[8] = target: glutathione S-transferase (GST)-EDG-1-i3 (UniProt P21453)
glutathione S-transferase (GST)-EDG-1-i3, sequence (P21453 other isoform, or with tags, fused parts or gaps): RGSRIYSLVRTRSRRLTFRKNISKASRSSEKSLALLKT

T236A EDG-1 mutant receptor, sequence (P21453 whole entry T236A): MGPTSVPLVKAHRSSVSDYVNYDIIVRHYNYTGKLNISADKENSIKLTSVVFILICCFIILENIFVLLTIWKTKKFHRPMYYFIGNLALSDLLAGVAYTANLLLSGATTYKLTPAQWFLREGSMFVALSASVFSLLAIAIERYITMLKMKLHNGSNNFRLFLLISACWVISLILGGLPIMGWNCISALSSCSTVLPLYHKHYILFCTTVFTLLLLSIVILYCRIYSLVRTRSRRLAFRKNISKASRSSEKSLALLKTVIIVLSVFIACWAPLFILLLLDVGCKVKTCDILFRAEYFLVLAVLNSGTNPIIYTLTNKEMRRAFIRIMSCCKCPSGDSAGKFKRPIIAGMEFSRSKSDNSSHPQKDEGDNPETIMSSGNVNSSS
R231K EDG-1 mutant receptor, sequence (P21453 whole entry R231K): as the sequence (P21453 whole entry T236A) above, with R231K, A236T counted along it
Flag-tagged wild-type EDG-1 receptor, sequence (P21453 whole entry): as the sequence (P21453 whole entry T236A) above, with A236T counted along it
R233K EDG-1 mutant receptor, sequence (P21453 whole entry R233K): as the sequence (P21453 whole entry T236A) above, with R233K, A236T counted along it
GST-i3 polypeptide from EDG-5 [GST: P08515], sequence (P08515 whole entry, looked up): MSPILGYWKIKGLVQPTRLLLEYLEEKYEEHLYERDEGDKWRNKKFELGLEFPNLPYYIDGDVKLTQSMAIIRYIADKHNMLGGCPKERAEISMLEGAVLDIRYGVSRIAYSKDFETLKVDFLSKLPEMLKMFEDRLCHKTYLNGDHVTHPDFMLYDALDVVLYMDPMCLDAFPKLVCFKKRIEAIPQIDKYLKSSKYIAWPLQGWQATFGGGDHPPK
GST-i3T236V polypeptide, sequence (P21453 whole entry T236V, looked up, tested part not stated): as the sequence (P21453 whole entry T236A) above, with A236V counted along it
GST-i3 polypeptide from EDG-3, sequence (Q99500 217-243): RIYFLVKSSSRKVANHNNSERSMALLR

p90^RSK (active kinase)
in vitro phosphorylation of immunoprecipitated receptor [1]: in vitro phosphorylation with p90^RSK was similar in wild-type as well as in the three mutants | in vitro phosphorylation of immunoprecipitated receptor [2]: in vitro phosphorylation with p90^RSK was similar in wild-type as well as in the three mutants | in vitro phosphorylation of immunoprecipitated receptor [3]: in vitro phosphorylation with p90^RSK was similar in wild-type as well as in the three mutants | in vitro phosphorylation of immunoprecipitated receptor [4]: in vitro phosphorylation with p90^RSK was similar in wild-type as well as in the three mutants

recombinant, active Akt
in vitro phosphorylation (32P-phosphate incorporation) [5]: ^32P-phosphate incorporation into the GST-i3T236V polypeptide was significantly reduced upon incubation with Akt | in vitro phosphorylation (32P incorporation, SDS-PAGE) [6]: only the GST-EDG-1-i3 was phosphorylated by Akt | in vitro phosphorylation of immunoprecipitated receptor [1]: All three mutants were phosphorylated very poorly by the active Akt kinase in an in vitro phosphorylation reaction when compared to the wild-type EDG-1 | in vitro phosphorylation of immunoprecipitated receptor [2]: All three mutants were phosphorylated very poorly by the active Akt kinase in an in vitro phosphorylation reaction when compared to the wild-type EDG-1 | in vitro phosphorylation (32P incorporation, SDS-PAGE) [7]: only the GST-EDG-1-i3 was phosphorylated by Akt | in vitro phosphorylation of immunoprecipitated receptor [3]: All three mutants were phosphorylated very poorly by the active Akt kinase in an in vitro phosphorylation reaction when compared to the wild-type EDG-1 | in vitro phosphorylation of immunoprecipitated receptor [4]: All three mutants were phosphorylated very poorly by the active Akt kinase in an in vitro phosphorylation reaction when compared to the wild-type EDG-1 | in vitro phosphorylation (32P incorporation, SDS-PAGE) [8]: only the GST-EDG-1-i3 was phosphorylated by Akt

Source: patent publication US20020142982
